Measurements published in patent US20110159003A1 (DOMANTIS, published 2011).
Numbering of substitutions follows the chain as printed. Values belong to the binder of their own block, whether it stands above or below them.

Legend:
human IL-4 [1] = biological target: T1, human IL-4 (human, UniProt P05112 25-153, biotinylated in the RBA and on the Biacore chip); assay: DOM9 RBA (IL-4 RBA), binder titrated
T1 sequence (looked up): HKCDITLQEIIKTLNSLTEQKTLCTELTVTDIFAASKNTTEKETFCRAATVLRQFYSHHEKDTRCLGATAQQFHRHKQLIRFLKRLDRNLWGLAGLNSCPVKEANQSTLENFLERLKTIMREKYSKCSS

human IL-13 [2] = biological target: T2, human IL-13 (human, UniProt P35225 35-146, limits assumed, biotinylated on the Biacore chip); assay: Dom10 RBA (text: IL-13 sandwich ELISA), binder titrated
T2 construct: also called interleukin-13; biotinylated IL-13

[3] = biological target: variant IL-13 (R130Q) (human), P35225; assay: cell-based or functional assay
human IL-4 [4] = biological target: T1, human IL-4; assay: IL-4 RBA (ELISA), binder titrated; printed as potency
Excerpt: The wells were washed three times with 0.1% (v/v) Tween 20 in PBS, followed by three washes with PBS, before blocking with 2% (w/v) BSA in PBS. […] The reaction was stopped by the addition of HCl and the absorbance read at 450 nm.

human IL-13 [5] = biological target: T2, human IL-13; assay: IL-13 sandwich ELISA, binder titrated; printed as potency
Method: A MAXISORP™ plate (high protein binding ELISA plate, Nunc, Denmark) was coated overnight with 2.5 μg/ml coating antibody (Module Set, Bender MedSystems, Vienna, Austria), then washed once with 0.05% (v/v) Tween 20 in PBS before blocking with 0.5% (w/v) BSA 0.05% (v/v) Tween 20 in PBS. […] The plate was then incubated with TMB substrate (KPL, Gaithersburg, USA), and the reaction was stopped by the addition of HCl and the absorbance read at 450 nm.

human IL-4 [6] = biological target: T1, human IL-4; assay: cell-based or functional assay

T2 sequence (P35225 35-146 limits assumed): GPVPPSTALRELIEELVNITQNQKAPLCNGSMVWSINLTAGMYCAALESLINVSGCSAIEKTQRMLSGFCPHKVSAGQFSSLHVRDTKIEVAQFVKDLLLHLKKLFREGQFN
variant IL-13 (R130Q) (human), P35225, sequence (P35225 35-146, stated change not applied): as the sequence (P35225 35-146 limits assumed) above

B2: DOM10-176-535 (protein)
VL: DIQMTQSPSSLSASVGDRVTITCRASQWIGPYLNWYQQKPGKAPKPLIYMGYWAPSGVPSRFSGSGSGTDFTLTISSLQPEDFATYYCQQDLYPPFTFGQGTKVEIKR
TF-1 proliferation IC50, variant IL-13 [3]: 7.8 nM

B5: DOM9-112-22 (other)
VH: EVQLLESWGGLVQPGGSLRLSCAASGFTFRNYGMAWVRQAPGKGLEWISWIDASGTETYYADPVKGRFTISRDNSKNTLYLQMNSLRAEDTAVYYCAKSLGRFDYWGQGTLVTVSS
average inhibition of HDM induced PBMC proliferation at 100 nM dAb (human IL-4 [6]): 23%

B6: DOM10-53-316 (protein)
VH: GVQLLESGGGLVQPGGSLRLSCAASGFIFAWYDMGWARQAPGKGLEWVSSIDWHGEVTYYADSVKGRFTISRDNSKNTLYLQMNSLRAEDTAVYYCATAEDEPGYDYWGQGTLVTVSS
TF-1 proliferation IC50, variant IL-13 [3]: 0.52 nM

B7: DOM10-208-TVAAPS-DOM9-155-78 (bispecific antibody, from a related filing, part only)
chain: DIQMTQSPSSLSASVGDRVTITCRASSPITDGLAWYQQKPGKAPKLLIDTGSRLQSGVPSRFSGSGSGTDFTLTISSLQPEDFATYYCRQGAMGSYTFGQGTKVEIKRTVAAPSDIQMTQSPSSLSASVGDRVTITCRASRHIGDWLHWYQQKPGKAPKLLIAWASTLDSGVPSRFSGSGSGTDFTLTISSLQPEDFATYYCLQEGWGPPTFGQGTKVEIKR
IC50 (human IL-4 [1]): 8.18 nM | EC50 (human IL-13 [2]): 4240 nM

B9: DOM9-44-502 (other)
VL: DIQMTQSPSSLSASVGDRVTITCRASQNINFWLRWYQQKPGKAPTLLIYDASRSQSGVPSRFSGSGSGTDFTLTISSLQPEDFATYYCQQDLMPPYTFGQGTKVEIKR
average inhibition of HDM induced PBMC proliferation at 100 nM dAb (human IL-4 [6]): 38%

Further lines, results first:

IC50 (human IL-4 [1]): 6.65 nM | EC50 (human IL-13 [2]): 10.8 nM
B1: DOM10-215 TVAAPS-DOM9-155-78 (bispecific antibody, from a related filing, part only)
chain: DIQMTQSPSSLSASVGDRVTITCRASQNIFADLNWYQQKPGKAPKLLIYMGSRLQSGVPSRFSGSGSGTDFTLTISSLQPEDFATYYCQQDYKFPLTFGQGTKVEIKRTVAAPSDIQMTQSPSSLSASVGDRVTITCRASRHIGDWLHWYQQKPGKAPKLLIAWASTLDSGVPSRFSGSGSGTDFTLTISSLQPEDFATYYCLQEGWGPPTFGQGTKVEIKR

IC50 (human IL-4 [4]): 13 nM | IC50 (human IL-13 [5]): 1 nM
B3: IgG:9-44-502×10-176-535 (bispecific antibody, V domains shown, not shown: a dimerising Fc or GST)
V domain 1: B9 VL
V domain 2: B2 VL
notes: IgG-like format from vector pDOM30 (heavy and light chain cassettes); also called dual specific IgG-like format

IC50 (human IL-4 [1]): 6.91 nM | EC50 (human IL-13 [2]): 62 nM
B4: DOM10-213 TVAAPS-DOM9-155-78 (bispecific antibody, from a related filing, part only)
chain: DIQMTQSPSSLSASVGDRVTITCRASQAIPWGLNWYQQKPGKAPKLLIYDVSSLQSGVPSRFSGSGSGTDFTLTISSLQPEDFATYYCQQDIHIPMTFGQGTKVEIKRTVAAPSDIQMTQSPSSLSASVGDRVTITCRASRHIGDWLHWYQQKPGKAPKLLIAWASTLDSGVPSRFSGSGSGTDFTLTISSLQPEDFATYYCLQEGWGPPTFGQGTKVEIKR

IC50 (human IL-4 [1]): 12.5 nM
B8: DOM10-224 TVAAPS-DOM9-155-78 (bispecific antibody, from a related filing, part only)
chain: B7 chain with S27P, P28N, T30A, D31V, G32D, D49R, T50G, G51V
